Laboratory results taken from patent US20160060347A1 (MorphoSys, published 2016).
Residue numbers refer to the chain shown, from its start.

B1: CX2-Mab #1 (IgG1 format) (antibody, V domains shown)
VH: QVQLVQSGAEVKKPGSSVKVSCKASGGTFSSYAISWVRQAPGQGLEWMGGIIPIVGEAKYAQKFQGRVTITADESTSTAYMELSSLRSEDTAVYYCARDSSGYDGYYAFAYWGQGTQVTVSS
VL: DIVLTQPPSVSGAPGQRGTISCSGSSSNIGSSSVNWYQQLPGTAPKLLIYRNNQRPSGVPDRFSGSKSGTSASLAITGLQAEDEADYYCGATDFSANQVVFGGGTKLTVLG
notes: Fab converted into IgG1 format, expressed in a human cell line, protein A purified; also called parental
B2: CX2-Mab #2 (IgG1 format) (antibody, V domains shown)
VH: QVQLVQSGAEVKKPGASVKVSCKASGYTFSRYAMHWVRQAPGQGLEWMGVINPYNGNTRYAQKFQGRVTMTRDTSISTAYMELSRLRSEDTAVYYCARGSHIQAGAFDYWGQGTLVTVSS
VL: DIQMTQSPSSLSASVGDRVTITCRASQGINNRLNWYQQKPGKAPKLLIYDGSSLQSGVPSRFSGSGSGTDFTLTISSLQPEDFATYYCQQYIHFPVTFGQGTKVEIKR
notes: Fab converted into IgG1 format, expressed in a human cell line, protein A purified
B3: CX2-Mab #5 (IgG1 format) (antibody, V domains shown)
VH: EVQLLESGGGLVQPGGSLRLSCAASGFTFNSNAMSWVRQAPGKGLEWVSFISYSGSHTYYADSVKGRFTISRDNSKNTLYLQMNSLRAEDTAVYYCARYTRFLSRPAFDPWGQGTLVTVSS
VL: DIVLTQPPSVSGAPGQRVTISCTGSSSNIGAGYDVHWYQQLPGTAPKLLIYYNSKRPSGVPDRFSGSKSGTSASLAITGLQAEDEADYYCGAYDRKMNSYVFGGGTKLTVLG
notes: as for B2
B4: CX2-Mab #17 (Fab, V domains shown)
VH: EVQLLESGGGLVQPGGSLRLSCAASGFTFSSYSMSWVRQAPGKGLEWVSYISSAGSNTYYADSVKGRFTISRDNSKNTLYLQMNSLRAEDTAVYYCARGRAYGYFDYWGQGTLVTVSS
VL: DIVLTQPPSVSGAPGQRVTISCSGSSSNIGSNTVYWYQQLPGTAPKLLISSNTKRPSGVPDRFSGSKSGTSASLAITGLQAEDEADYYCQVTDFRLHHVVFGGGTKLTVLG
B5: CX2-Mab #6 (IgG1 format) (antibody, V domains shown)
VH: B4 VH with S33T, Y50A, S52H, A54S, N57S, G99V, R100P, G103Y, Y104G, Y107H
VL: DIELTQPPSVSVSPGQTASITCSGDSLGAFYVHWYQQKPGQAPVLVIYRTNNRPSGIPERFSGSNSGNTATLTISGTQAEDEADYYCASYASRNRVFGGGTKLTVLG
notes: as for B2
B6: CX2-Mab #3 (IgG1 format) (antibody, V domains shown)
VH: B4 VH with S33W, Y50V, S53Y, A54S, N57E, Y59F, A101V, Y102G, G103Y, Y104A
VL: DIVLTQPPSVSGAPGQRVTISCSGSSSNIGVNYVNWYQQLPGTAPKLLIYSNNQRPSGVPDRFSGSKSGTSASLAITGLQAEDEADYYCQSRASGFYSVVFGGGTKLTVLG
notes: as for B1
B7: CX2-Mab #18 (Fab, V domains shown)
VH: EVQLLESGGGLVQPGGSLRLSCAASGFTFSRYAMSWVRQAPGKGLEWVSVISSDGGTTYYADSVKGRFTISRDNSKNTLYLQMNSLRAEDTAVYYCARIFSYALDYWGQGTLVTVSS
VL: DIVLTQPPSVSGAPGQRVTISCSGSSSNIGSYYVNWYQQLPGTAPKLLIYRNSKRPSGVPDRFSGSKSGTSASLAITGLQAEDEADYYCSSYDAHSDSVVFGGGTKLTVLG
B8: CX2-Mab #19 (Fab, V domains shown)
VH: EVQLVQSGAEVKKPGESLKISCKGSGYSFTSYWISWVRQMPGKGLEWMGIIDPANSYTRYSPSFQGQVTISADKSISTAYLQWSSLKASDTAMYYCARVERRPRYYGSNYYGMDVWGQGTLVTVSS
VL: B7 VL with Y32N, R51G, K54N, S91V, Y92R, A94S, H95E, S96G, D97R, S98Y
B9: CX2-Mab #4 (IgG1 format) (antibody, V domains shown)
VH: EVQLLESGGGLVQPGGSLRLSCAASGFTFSSNGMSWVRQAPGKGLEWVSAISSSGSKTYYADSVKGRFTISRDNSKNTLYLQMNSLRAEDTAVYYCARGYGFDVWGQGTLVTVSS
VL: DIVLTQPPSVSGAPGQRVTISCSGSSSNIGVNIVNWYQQLPGTAPKLLIYSTSNRPSGVPDRFSGSKSGTSASLAITGLQAEDEADYYCATRDGISKSVVFGGGTKLTVLG
notes: as for B1

What was measured:
human CXCR2 [1] = molecular target: T1, human CXCR2 (human, UniProt P25025 1-360); assay: FACS, CXCR2 Flp-In CHO cells, IgG1
T1 construct: Expressed on Flp-In CHO cells (FACS, Fab-ZAP, ADCC, CDC) or on bought PathHunter CHO cells (beta-arrestin assay); the construct in the PathHunter cells is not described; also called chemokine receptor CXCR2; CXCR2 CHO Flp-In cells
T1 sequence: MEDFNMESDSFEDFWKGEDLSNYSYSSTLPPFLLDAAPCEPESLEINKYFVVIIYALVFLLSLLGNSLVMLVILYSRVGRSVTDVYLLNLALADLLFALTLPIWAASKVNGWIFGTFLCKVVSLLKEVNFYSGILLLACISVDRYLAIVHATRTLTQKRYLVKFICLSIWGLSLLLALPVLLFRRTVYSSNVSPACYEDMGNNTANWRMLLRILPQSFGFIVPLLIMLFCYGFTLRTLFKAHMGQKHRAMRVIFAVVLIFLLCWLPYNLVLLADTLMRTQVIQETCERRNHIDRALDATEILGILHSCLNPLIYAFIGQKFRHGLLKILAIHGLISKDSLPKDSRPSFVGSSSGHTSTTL
Method: (§1) Human CXCR2-expressing Flp-In™ CHO cells were harvested at ˜80% confluence washed once with PBS (Gibco, Cat #14190-094) and detached using Versene (Invitrogen, Cat #15040-033). Subsequently, cells were counted and centrifuged at 250×g for 5 min at 4° C. Afterwards, cells were diluted in Superblock (Thermo Fisher Perbio Science, Cat #37515) to a cell concentration of 2E+05-1E+06/mL and 100 μL/well were transferred to 96-well microtiter plate (Nunc, Cat#163320). Cells were once centrifuged, supernatant discarded and antibodies added at 1 μg/mL (unless stated otherwise), incubated for 1 h at 4° C. and washed twice with FACS buffer (PBS/3% FCS/0.02% NaN3). Binding of anti-CXCR2 antibodies was detected by incubation of Phycoerythrin-conjugated anti-human IgG (Dianova, Cat #109-116-097) for 1 h at 4° C. Samples were subsequently measured using FACS Array (Becton Dickinson).
All six Fabs were converted into IgG1 format and were expressed in a human cell line and purified via protein A chromatography for further analysis. All antibodies were tested for specific CXCR2 binding on CXCR2-expressing CHO Flp-In™ cells by FACS. Additionally, inhibition of CXCR2 mediated beta-arrestin signaling by the antibodies was analyzed. Furthermore, IC₅₀ concentrations for cytotoxicity of respective antibodies via secondary immunotoxin in a Fab-ZAP assay using CXCR2 expressing CHO Flp-In™ cells were determined together with the capability of the antibodies to induce complement-dependent cellular cytotoxicity (CDC) and antibody-dependent cellular toxicity (ADCC). Respective experimental settings as outlined in Example 3 were used (data of one representative experiment are shown).

[2] = molecular target: T2, hu_CXCR2_N-term (1-17)-BSA (human; bovine, coupled to carrier protein BSA; C-terminal cysteine introduced to enable coupling); assay: ELISA, coated peptide-BSA, Fab
T2 construct: Synthetic linear peptide chemically coupled to the carrier; also called CXCR2_aa1-17_BSA; CXCR2 aa1-17 BSA
T2 sequence (P02769 25-607 limits assumed): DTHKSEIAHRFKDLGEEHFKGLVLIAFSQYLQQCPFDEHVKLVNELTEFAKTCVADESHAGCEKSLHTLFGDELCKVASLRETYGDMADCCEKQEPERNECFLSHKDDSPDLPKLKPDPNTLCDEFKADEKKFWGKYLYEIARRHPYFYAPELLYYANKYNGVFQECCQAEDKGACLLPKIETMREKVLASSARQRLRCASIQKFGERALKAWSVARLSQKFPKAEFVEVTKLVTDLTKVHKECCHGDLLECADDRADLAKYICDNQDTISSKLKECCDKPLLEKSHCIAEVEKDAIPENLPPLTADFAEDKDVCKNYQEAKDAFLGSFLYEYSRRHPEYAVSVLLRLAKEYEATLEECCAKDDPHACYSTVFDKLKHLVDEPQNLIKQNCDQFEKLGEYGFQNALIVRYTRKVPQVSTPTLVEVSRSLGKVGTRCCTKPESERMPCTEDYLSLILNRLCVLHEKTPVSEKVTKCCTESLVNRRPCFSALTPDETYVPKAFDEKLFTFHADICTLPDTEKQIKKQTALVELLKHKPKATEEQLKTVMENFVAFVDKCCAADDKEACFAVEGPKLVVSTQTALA
Method: (§2) 384-well Maxisorp plates (Nunc; Cat. #460518) were coated with respective CXCR2 and control peptides coupled either to BSA or Transferrin (TRF) at 1-5 μg/mL and incubated o/n at 4° C. […] After three washing steps, antibodies were added at 5-10 μg/mL and titrated in some experiments. Antibodies were incubated 1 h at room temperature and plates were subsequently washed. Binding of anti-CXCR2 antibodies was detected by using alkaline phosphatase-conjugated anti-human IgG, (Dianova, Cat #109-055-097). AttoPhos fluorescence substrate (Roche, Cat #1484281) was added according to instructions of the manufacturer and fluorescence was measured (excitation at 430 nm, emission at 535 nm) using a microplate reader.

[3] = molecular target: T3, N-terminal peptide aa1-48, BSA-coupled (human; bovine, coupled to carrier protein BSA; C-terminal cysteine introduced to enable coupling); assay: ELISA, coated peptide-BSA, Fab
T3 construct: also called CXCR2 aa1-48 BSA
Method: as §2

[4] = molecular target: T4, ECL3 peptide aa273-295, BSA-coupled (human; bovine, coupled to carrier protein BSA; C-terminal cysteine introduced to enable coupling); assay: ELISA, coated peptide-BSA, Fab
T4 construct: also called CXCR2 aa273-295 BSA; peptides representing the extracellular domain 3
T4 sequence (peptide, as listed by the source limits assumed, chain 1 of 2): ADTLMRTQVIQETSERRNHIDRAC
T4 sequence (P02769 25-607 limits assumed, chain 2 of 2): as the sequence (P02769 25-607 limits assumed) above
Method: as §2

human CXCR2 [5] = molecular target: T1, human CXCR2; assay: FACS, CXCR2 CHO Flp-In cells, Fab
Method: as §1

| EC50 (human CXCR2 [1]) | binding result [2] | binding result [3] | binding result [4] | binding result (human CXCR2 [5]) | Binder |
| --- | --- | --- | --- | --- | --- |
| 400 pM |  |  |  |  | B1 |
| > 667000 pM |  |  |  |  | B2 |
| 17700 pM |  |  |  |  | B3 |
|  | binds | binds | binds | binds | B4 |
| 100 pM |  |  |  |  | B5 |
| 200 pM |  |  |  |  | B6 |
|  | binds | binds | binds | binds | B7 |
|  | binds | binds | binds | binds | B8 |
| 100 pM |  |  |  |  | B9 |
